Tests used:
[1] = biological target: T1, His-tagged human EGFR (expressed/purified in-house) (human, UniProt P00533 25-645, limits assumed); experiment: BLI (Octet384), antibody captured on AHC tips, His-tagged EGFR 0-100 nM in solution, global 1:1 fit
T1 construct: Made in-house; also called ErbB1; HER1; not shown: His tag

[2] = biological target: human HER3 (purchased from Acro Bio) (human, UniProt P21860 20-643); experiment: BLI (Octet384), antibody captured on AHC tips, HER3 (Acro Bio) 0-100 nM in solution, global 1:1 fit

Row | Binder | Kd [1] [nM] | Response [1] | koff [1] [s⁻¹] | kon [1] [M⁻¹ s⁻¹] | Kd [2] [nM] | Response [2] | koff [2] [s⁻¹] | kon [2] [M⁻¹ s⁻¹]
1 | SI-1X4 (bispecific antibody, Tetravalent IgG-scFv: anti-EGFR Fab with nimotuzumab variable regions, anti-HER3 scFv at the C-terminus of the heavy chain; also called EGFRxHER3 bispecific antibody; nimotuzumab-based bispecific antibody) heavy: not shown light: DIQMTQSPSSLSASVGDRVTITCRSSQNIVHSNGNTYLDWYQQTPGKAPKLLIYKVSNRFSGVPSRFSGSGSGTDFTFTISSLQPEDIATYYCFQYSHVPWTFGQGTKLQITRTVAAPSVFIFPPSDEQLKSGTASVVCLLNNFYPREAKVQWKVDNALQSGNSQESVTEQDSKDSTYSLSSTLTLSKADYEKHKVYACEVTHQGLSSPVTKSFNRGEC | 23.8 | 0.171 | 0.00171 | 71600 | 156 | 0.264 | 0.0281 | 180000
2 | SI-1X26 (bispecific antibody, scFv on the C-terminus of the light chain; also called EGFRxHER3 bispecific antibody; nimotuzumab-based bispecific antibody) heavy: not shown light: DIQMTQSPSSLSASVGDRVTITCRSSQNIVHSNGNTYLDWYQQTPGKAPKLLIYKVSNRFSGVPSRFSGSGSGTDFTFTISSLQPEDIATYYCFQYSHVPWTFGCGTKLQITRTVAAPSVFIFPPSDEQLKSGTASVVCLLNNFYPREAKVQWKVDNALQSGNSQESVTEQDSKDSTYSLSSTLTLSKADYEKHKVYACEVTHQGLSSPVTKSFNRGECGGGGSGGGGSGGGGSQVQLQESGGGLVKPGGSLSLSCAASGFTFSSYWMSWVRQAPGKGLEWVANINRDGSASYYVDSVKGRFTISRDDAKNSLYLQMNSLRAEDTAVYYCARDRGVGYFDLWGRGTLVTVSSGGGGSGGGGSGGGGSQSALTQPASVSGSPGQSITISCTGTSSDVGGYNFVSWYQQHPGKAPKLMIYDVSDRPSGVSDRFSGSKSGNTASLIISGLQADDEADYYCSSYGSSSTHVIFGGGTKVTVL | 11.4 | 0.194 | 0.000627 | 55100 | 151 | 0.294 | 0.0308 | 204000
